Results on 2 molecules are retold here after US20260234255A1 (Genmab, published 2026).

Assay [1] addresses T1, human CD30 (human, UniProt P28908 19-595).
T1 construct: The same molecule is used for CD30 on HL/ALCL/NHL cell lines; also called huCD30; TNFRSF8
T1 sequence: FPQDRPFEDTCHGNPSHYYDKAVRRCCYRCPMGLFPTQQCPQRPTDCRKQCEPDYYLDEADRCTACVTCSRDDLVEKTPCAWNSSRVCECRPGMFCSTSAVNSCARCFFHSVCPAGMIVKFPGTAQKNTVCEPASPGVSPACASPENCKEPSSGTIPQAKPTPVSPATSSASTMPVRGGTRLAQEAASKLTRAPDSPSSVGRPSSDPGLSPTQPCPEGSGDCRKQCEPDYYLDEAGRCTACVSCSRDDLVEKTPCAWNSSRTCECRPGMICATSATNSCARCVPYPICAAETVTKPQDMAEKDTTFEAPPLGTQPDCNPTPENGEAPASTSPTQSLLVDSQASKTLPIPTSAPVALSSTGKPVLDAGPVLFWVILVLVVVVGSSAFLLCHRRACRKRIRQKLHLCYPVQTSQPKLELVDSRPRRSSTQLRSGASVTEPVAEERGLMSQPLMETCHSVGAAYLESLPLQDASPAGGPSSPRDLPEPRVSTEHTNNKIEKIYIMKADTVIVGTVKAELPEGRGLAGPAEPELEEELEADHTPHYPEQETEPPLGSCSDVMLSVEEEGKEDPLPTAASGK
Kind of assay: flow cytometry, DEL cells, experiment N = 2.

Assay [2] concerns the target T1, human CD30. Kind of assay: flow cytometry, KI-JK cells, experiment N = 1.
Assay [3] addresses T1, human CD30. Kind of assay: flow cytometry, L-428 cells, experiment N = 1.
The target of assay [4] is T1, human CD30. Description: cell-based or functional assay.
Assay [5] concerns the target T1, human CD30. Kind of assay: flow cytometry, KM-H2 cells (HL), range of 3 tests. As to the method:
(§1) Cells (3×10⁴ cells/well) were incubated in polystyrene 96-well round-bottom plates (Greiner bio-one, cat. no. 650180) with serial dilutions of antibodies (range 0.0046 to 10 μg/mL in 3-fold dilution steps) in 50 μL staining buffer at 4° C. for 30 min. After washing twice in staining buffer, cells were incubated with 50 μL secondary antibody at 4° C. for 30 min. […] Next, cells were washed twice in staining buffer, resuspended in 100 μL staining buffer supplemented with TO-PRO-3 iodide (Thermo Fisher Scientific; cat. no. T3605; 1:8000 dilution) and analyzed on a FACSCelesta flow cytometer (BD Biosciences, USA). Live cells were gated based on FSC/SSC and absence of TOPRO-3 staining. Binding curves were analyzed by non-linear regression of log-transformed data (sigmoidal dose-response with variable slope, four parameters) using GraphPad Prism V7.02 software (GraphPad Software, San Diego, CA, USA).

Assay [6] has as its target T1, human CD30. Description: flow cytometry, HDLM-2 cells (HL), range of 3 tests. As to the method: as §1
Assay [7] deals with T1, human CD30. Kind of assay: flow cytometry, DEL cells (ALCL), average of 3 tests. As to the method:
as §1

Assay [8] concerns the target T1, human CD30. Description: flow cytometry, L-540 cells (HL), average of 3 tests. As to the method:
as §1

In assay [9] the target is T1, human CD30. Description: flow cytometry, HDLM-2 cells (HL), average of 3 tests. As to the method: as §1
Assay [10] addresses T1, human CD30. Kind of assay: flow cytometry, L-1236 cells (HL), average of 3 tests. As to the method:
as §1

Assay [11] addresses T1, human CD30. Kind of assay: flow cytometry, KARPAS-299 cells (ALCL), average of 2 tests. As to the method: as §1
Assay [12] addresses T2, complement protein C1q (human, UniProt P02745 23-245; P02746 28-253; P02747 29-245).
T2 construct: 20% human serum was used as the source of C1q
Kind of assay: flow cytometry with FITC anti-C1q; antibody-opsonized activated human CD8+ T cells, 20% normal human serum as the source of C1q. As to the method: Activated CD8⁺ T cells were seeded in a round-bottom 96-well plate (30,000 cells/well), pelleted, and resuspended in 30 μL assay medium (RPMI-1640 with 25 mM HEPES and L-glutamine, supplemented with 0.1% [w/v] bovine serum albumin fraction V (BSA; Roche, cat. no. 10735086001) and penicillin/streptomycin).
Human serum (20 μL/well; Sanquin, lot 20L15-02), as a source of C1q, was added to a final concentration of 20%. Cells were incubated on ice for 45 min, followed by two washes with cold GMB FACS buffer and incubation with 50 μL fluorescein isothiocyanate (FITC)-conjugated rabbit anti-human C1q (final concentration of 20 μg/mL (DAKO, cat no. F0254); diluted 1:75 in GMB FACS buffer) in the presence or absence of allophycocyanin-conjugated mouse-anti-CD8 (BD Biosciences, cat. no. 555369; diluted 1:50 in GMB FACS buffer) in the dark at 4° C. for 30 min. […] C1q binding to viable cells (as identified by DAPI exclusion) was analyzed by flow cytometry on an iQue3 Screener (Intellicyt Corporation). Data were analyzed using iQue software (Intellicyt Corporation, ForeCyt® Enterprise Client Edition 6.2 [R3], Version 6.2.652).

T2 sequence (P02745 23-245 limits assumed, chain 1 of 3): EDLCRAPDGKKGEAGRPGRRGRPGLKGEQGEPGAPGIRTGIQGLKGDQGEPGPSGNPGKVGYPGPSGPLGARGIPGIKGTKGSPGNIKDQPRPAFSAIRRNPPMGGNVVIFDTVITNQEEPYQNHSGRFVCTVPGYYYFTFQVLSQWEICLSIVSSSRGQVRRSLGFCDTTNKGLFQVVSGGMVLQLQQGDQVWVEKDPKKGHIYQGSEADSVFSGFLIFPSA
T2 sequence (P02746 28-253 limits assumed, chain 2 of 3): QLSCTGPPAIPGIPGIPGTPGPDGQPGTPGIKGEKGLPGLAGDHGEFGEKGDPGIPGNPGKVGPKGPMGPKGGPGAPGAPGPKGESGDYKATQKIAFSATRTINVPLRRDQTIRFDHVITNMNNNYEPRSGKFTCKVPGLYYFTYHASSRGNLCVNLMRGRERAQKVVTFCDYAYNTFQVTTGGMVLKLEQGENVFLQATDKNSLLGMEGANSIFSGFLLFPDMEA
T2 sequence (P02747 29-245 limits assumed, chain 3 of 3): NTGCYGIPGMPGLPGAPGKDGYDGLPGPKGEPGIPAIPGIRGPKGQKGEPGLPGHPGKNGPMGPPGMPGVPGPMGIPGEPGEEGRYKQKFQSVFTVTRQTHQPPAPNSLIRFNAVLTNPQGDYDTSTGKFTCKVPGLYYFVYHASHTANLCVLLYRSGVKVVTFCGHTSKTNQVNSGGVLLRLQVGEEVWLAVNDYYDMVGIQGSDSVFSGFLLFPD

B1: bsG1-huCD3-FEALxCD30-MDX060-FEAR (bispecific antibody, human IgG1, kappa, lambda)
heavy 1: not shown
light 1: not shown
heavy 2: QVQLQQWGAGLLKPSETLSLTCAVYGGSFSAYYWSWIRQPPGKGLEWIGDINHGGGTNYNPSLKSRVTISVDTSKNQFSLKLNSVTAADTAVYYCASLTAYWGQGSLVTVSSASTKGPSVFPLAPSSKSTSGGTAALGCLVKDYFPEPVTVSWNSGALTSGVHTFPAVLQSSGLYSLSSVVTVPSSSLGTQTYICNVNHKPSNTKVDKRVEPKSCDKTHTCPPCPAPEFEGGPSVFLFPPKPKDTLMISRTPEVTCVVVAVSHEDPEVKFNWYVDGVEVHNAKTKPREEQYNSTYRVVSVLTVLHQDWLNGKEYKCKVSNKALPAPIEKTISKAKGQPREPQVYTLPPSREEMTKNQVSLTCLVKGFYPSDIAVEWESNGQPENNYKTTPPVLDSDGSFFLYSRLTVDKSRWQQGNVFSCSVMHEALHNHYTQKSLSLSPG
light 2: DIQMTQSPTSLSASVGDRVTITCRASQGISSWLTWYQQKPEKAPKSLIYAASSLQSGVPSRFSGSGSGTDFTLTISSLQPEDFATYYCQQYDSYPITFGQGTRLEIKRTVAAPSVFIFPPSDEQLKSGTASVVCLLNNFYPREAKVQWKVDNALQSGNSQESVTEQDSKDSTYSLSSTLTLSKADYEKHKVYACEVTHQGLSSPVTKSFNRGEC
notes: also called bsG1-huCD3xCD30-MDX060
With B1, the half-maximal effective concentration (EC50) was found to be 0.0568 µg/mL in [1], 0.16 µg/mL in assay [2] and 0.154 µg/mL in assay [3].

B2: bsG1-huCD3-FEALxCD30-MDX060-FERR (bispecific antibody, human IgG1, kappa, lambda)
heavy 1: not shown
light 1: not shown
heavy 2: QVQLQQWGAGLLKPSETLSLTCAVYGGSFSAYYWSWIRQPPGKGLEWIGDINHGGGTNYNPSLKSRVTISVDTSKNQFSLKLNSVTAADTAVYYCASLTAYWGQGSLVTVSSASTKGPSVFPLAPSSKSTSGGTAALGCLVKDYFPEPVTVSWNSGALTSGVHTFPAVLQSSGLYSLSSVVTVPSSSLGTQTYICNVNHKPSNTKVDKRVEPKSCDKTHTCPPCPAPEFERGPSVFLFPPKPKDTLMISRTPEVTCVVVDVSHEDPEVKFNWYVDGVEVHNAKTKPREEQYNSTYRVVSVLTVLHQDWLNGKEYKCKVSNKALPAPIEKTISKAKGQPREPQVYTLPPSREEMTKNQVSLTCLVKGFYPSDIAVEWESNGQPENNYKTTPPVLDSDGSFFLYSRLTVDKSRWQQGNVFSCSVMHEALHNHYTQKSLSLSPG
light 2: DIQMTQSPTSLSASVGDRVTITCRASQGISSWLTWYQQKPEKAPKSLIYAASSLQSGVPSRFSGSGSGTDFTLTISSLQPEDFATYYCQQYDSYPITFGQGTRLEIKRTVAAPSVFIFPPSDEQLKSGTASVVCLLNNFYPREAKVQWKVDNALQSGNSQESVTEQDSKDSTYSLSSTLTLSKADYEKHKVYACEVTHQGLSSPVTKSFNRGEC
notes: Bispecific IgG1 made by controlled Fab-arm exchange; also called bsIgG1-huCD3-FEALxCD30-MDX060-FERR; bsG1-huCD3×CD30-MDX060
As to B2, the “T-cell mediated cytotoxicity of KI-JK cells, average IC50” value in [4] was 1.5 ng/mL. In addition, the “T-cell mediated cytotoxicity of L-428 cells, average IC50” value in assay [4] was determined as 2 ng/mL. The half-maximal effective concentration (EC50) in assay [5] was 0.141 to 0.182 µg/mL; in assay [6] it was 0.125 to 0.221 µg/mL; in [7], 0.201 µg/mL; in assay [8], 0.323 µg/mL; in assay [9] it was 0.167 µg/mL; in [10], 0.202 µg/mL. This molecule gave an EC50 in [11] of 0.202 µg/mL. In assay [12], the binding result is “no binding (tested: about 30 µg/mL)”.
